Consider 2 molecules from patent US20230110958A1 (Regeneron, published 2023).

Test [1] has as its target T1, murine IL27 receptor (IL27Ra and gp130) on mouse cells (MC9/STAT3-Luc reporter cells; splenic CD4+ T cells) (mouse, UniProt O70394 25-623; Q00560 23-917).
T1 sequence (looked up) 1: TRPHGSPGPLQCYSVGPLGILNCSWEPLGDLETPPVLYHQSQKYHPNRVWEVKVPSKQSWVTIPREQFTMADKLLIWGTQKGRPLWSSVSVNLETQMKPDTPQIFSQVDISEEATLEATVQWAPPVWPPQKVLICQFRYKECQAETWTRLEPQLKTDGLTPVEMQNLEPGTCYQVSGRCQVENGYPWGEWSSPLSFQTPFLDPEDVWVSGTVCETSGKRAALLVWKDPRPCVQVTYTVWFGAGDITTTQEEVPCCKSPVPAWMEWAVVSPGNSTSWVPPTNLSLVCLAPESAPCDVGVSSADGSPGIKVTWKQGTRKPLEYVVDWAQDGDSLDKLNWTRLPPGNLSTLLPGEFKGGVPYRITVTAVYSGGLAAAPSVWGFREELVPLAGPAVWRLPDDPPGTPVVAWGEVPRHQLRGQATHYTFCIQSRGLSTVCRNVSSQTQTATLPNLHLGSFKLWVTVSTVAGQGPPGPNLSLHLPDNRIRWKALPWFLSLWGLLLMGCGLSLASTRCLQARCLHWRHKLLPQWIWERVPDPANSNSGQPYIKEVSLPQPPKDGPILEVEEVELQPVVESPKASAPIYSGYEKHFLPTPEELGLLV
T1 sequence (looked up) 2: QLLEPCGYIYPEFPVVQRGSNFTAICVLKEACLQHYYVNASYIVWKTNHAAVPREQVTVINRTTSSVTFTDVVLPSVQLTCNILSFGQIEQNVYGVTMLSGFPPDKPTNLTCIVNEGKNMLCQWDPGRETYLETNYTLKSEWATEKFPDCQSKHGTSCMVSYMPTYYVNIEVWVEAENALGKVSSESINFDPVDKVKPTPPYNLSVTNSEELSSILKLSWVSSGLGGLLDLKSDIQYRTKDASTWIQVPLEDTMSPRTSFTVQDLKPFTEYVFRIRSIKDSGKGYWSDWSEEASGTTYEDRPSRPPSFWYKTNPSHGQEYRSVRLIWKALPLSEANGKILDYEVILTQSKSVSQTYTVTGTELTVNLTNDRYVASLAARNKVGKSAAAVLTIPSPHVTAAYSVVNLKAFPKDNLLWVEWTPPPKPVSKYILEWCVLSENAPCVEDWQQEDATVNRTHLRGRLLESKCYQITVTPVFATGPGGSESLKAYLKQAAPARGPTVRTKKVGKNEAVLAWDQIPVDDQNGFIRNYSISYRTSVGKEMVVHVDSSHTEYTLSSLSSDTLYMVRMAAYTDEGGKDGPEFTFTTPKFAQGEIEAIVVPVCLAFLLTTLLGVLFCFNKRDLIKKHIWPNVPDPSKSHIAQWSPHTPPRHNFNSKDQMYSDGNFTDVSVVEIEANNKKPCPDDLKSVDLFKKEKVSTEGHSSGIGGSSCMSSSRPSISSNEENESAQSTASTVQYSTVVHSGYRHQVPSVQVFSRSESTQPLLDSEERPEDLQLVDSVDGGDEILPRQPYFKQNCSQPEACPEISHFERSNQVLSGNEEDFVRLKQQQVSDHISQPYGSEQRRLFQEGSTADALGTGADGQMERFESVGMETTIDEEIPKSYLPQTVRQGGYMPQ
Put plainly: cell-based or functional assay.

Test [2] has as its target T1, murine IL27 receptor (IL27Ra and gp130) …. Put plainly: cell-based or functional assay. The source holds these as a separate data set.

B1: IL27M16, monovalent Fc x EBI3-p28 (Fc fusion)
chain 1: ESKYGPPCPPCPAPPVAGPSVFLFPPKPKDTLMISRTPEVTCVVVDVSQEDPEVQFNWYVDGVEVHNAKTKPREEQFNSTYRVVSVLTVLHQDWLNGKEYKCKVSNKGLPSSIEKTISKAKGQPREPQVYTLPPSQEEMTKNQVSLWCLVKGFYPSDIAVEWESNGQPENNYKTTPPVLDSDGSFFLYSRLTVDKSRWQEGNVFSCSVMHEALHNHYTQKSLSLSLGKGGGGSGGGGSGGGGSYTETALVALSQPRVQCHASRYPVAVDCSWTPLQAPNSTRSTSFIATYRLGVATQQQSQPCLQRSPQASRCTIPDVHLFSTVPYMLNVTAVHPGGASSSLLAFVAERIIKPDPPEGVRLRTAGQRLQVLWHPPASWPFPDIFSLKYRLRYRRRGASHFRQVGPIEATTFTLRNSKPHAKYCIQVSAQDLTDYGKPSDWSLPGQVESAPHKPGGGGSGGGGSGGGGSGGGGSFPTDPLSLQELRREFTVSLYLARKLLSEVQGYVHSFAESRLPGVNLDLLPLGYHLPNVSLTFQAWHHLSDSERLCFLATTLRPFPAMLGGLGTQGTWTSSEREQLWAMRLDLRDLHRHLRFQVLAAGFKCSKEEEDKEEEEEEEEEEKKLPLGALGGPNQVSSQVSWPQLLYTYQLLHSLELVLSRAVRDLLLLSLPRRPGSAWDS
chain 2: ESKYGPPCPPCPAPPVAGPSVFLFPPKPKDTLMISRTPEVTCVVVDVSQEDPEVQFNWYVDGVEVHNAKTKPREEQFNSTYRVVSVLTVLHQDWLNGKEYKCKVSNKGLPSSIEKTISKAKGQPREPQVYTLPPSQEEMTKNQVSLSCAVKGFYPSDIAVEWESNGQPENNYKTTPPVLDSDGSFFLVSRLTVDKSRWQEGNVFSCSVMHEALHNRFTQKSLSLSPGK
Take B1: in test [1], the “EC50 (M), STAT3 luciferase, MC9 cells” value was 1.18e-11 M and the “FOLD INDUCTION, STAT3 luciferase, MC9 cells” value turned out to be 2.76 fold. In addition, in test [2], the “EC50 (M), STAT3 luciferase, MC9/STAT3-Luc cells” value was 1.16e-11 M and the “FOLD INDUCTION, STAT3 luciferase, MC9/STAT3-Luc cells” value worked out at 5.62 fold.

B2: IL27M24, monovalent Fc x EB13-p28 (K52A) (Fc fusion)
chain 1: ESKYGPPCPPCPAPPVAGPSVFLFPPKPKDTLMISRTPEVTCVVVDVSQEDPEVQFNWYVDGVEVHNAKTKPREEQFNSTYRVVSVLTVLHQDWLNGKEYKCKVSNKGLPSSIEKTISKAKGQPREPQVYTLPPSQEEMTKNQVSLWCLVKGFYPSDIAVEWESNGQPENNYKTTPPVLDSDGSFFLYSRLTVDKSRWQEGNVFSCSVMHEALHNHYTQKSLSLSLGKGGGGSGGGGSGGGGSYTETALVALSQPRVQCHASRYPVAVDCSWTPLQAPNSTRSTSFIATYRLGVATQQQSQPCLQRSPQASRCTIPDVHLFSTVPYMLNVTAVHPGGASSSLLAFVAERIIKPDPPEGVRLRTAGQRLQVLWHPPASWPFPDIFSLKYRLRYRRRGASHFRQVGPIEATTFTLRNSKPHAKYCIQVSAQDLTDYGKPSDWSLPGQVESAPHKPGGGGSGGGGSGGGGSGGGGSFPTDPLSLQELRREFTVSLYLARALLSEVQGYVHSFAESRLPGVNLDLLPLGYHLPNVSLTFQAWHHLSDSERLCFLATTLRPFPAMLGGLGTQGTWTSSEREQLWAMRLDLRDLHRHLRFQVLAAGFKCSKEEEDKEEEEEEEEEEKKLPLGALGGPNQVSSQVSWPQLLYTYQLLHSLELVLSRAVRDLLLLSLPRRPGSAWDS
chain 2: ESKYGPPCPPCPAPPVAGPSVFLFPPKPKDTLMISRTPEVTCVVVDVSQEDPEVQFNWYVDGVEVHNAKTKPREEQFNSTYRVVSVLTVLHQDWLNGKEYKCKVSNKGLPSSIEKTISKAKGQPREPQVYTLPPSQEEMTKNQVSLSCAVKGFYPSDIAVEWESNGQPENNYKTTPPVLDSDGSFFLVSRLTVDKSRWQEGNVFSCSVMHEALHNRFTQKSLSLSPGK
With B2, in test [2], the “EC50 (M), STAT3 luciferase, MC9/STAT3-Luc cells” value is 1.18e-11 M and the “FOLD INDUCTION, STAT3 luciferase, MC9/STAT3-Luc cells” value is 5.59 fold.
